In US20070166308A1 (Amgen, published 2007):
Residue numbers refer to the chain shown, from its start.

T1: VCAM (Panvera) (UniProt P19320 25-698, limits assumed)
T1 sequence (looked up): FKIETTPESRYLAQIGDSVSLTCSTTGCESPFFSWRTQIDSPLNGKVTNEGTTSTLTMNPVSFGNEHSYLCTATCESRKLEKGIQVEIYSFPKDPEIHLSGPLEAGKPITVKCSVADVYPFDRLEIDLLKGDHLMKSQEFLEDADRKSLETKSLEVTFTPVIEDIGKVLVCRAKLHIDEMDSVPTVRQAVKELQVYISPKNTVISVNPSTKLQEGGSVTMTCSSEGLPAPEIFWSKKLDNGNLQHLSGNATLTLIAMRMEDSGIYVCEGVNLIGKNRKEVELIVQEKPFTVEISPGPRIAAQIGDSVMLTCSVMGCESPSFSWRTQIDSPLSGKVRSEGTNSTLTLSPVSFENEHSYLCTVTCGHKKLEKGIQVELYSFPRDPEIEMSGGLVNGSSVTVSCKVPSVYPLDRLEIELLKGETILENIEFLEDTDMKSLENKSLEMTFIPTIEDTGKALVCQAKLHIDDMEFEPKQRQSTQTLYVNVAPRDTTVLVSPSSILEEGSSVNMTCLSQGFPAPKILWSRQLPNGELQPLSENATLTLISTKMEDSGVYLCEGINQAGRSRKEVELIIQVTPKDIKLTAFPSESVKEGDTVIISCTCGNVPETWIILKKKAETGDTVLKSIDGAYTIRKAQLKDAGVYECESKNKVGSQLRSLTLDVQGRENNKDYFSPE

B1: anti-MAdCAM monoclonal antibody 7.20.5 (antibody, human IgG2, kappa, V domains shown)
VH: QVQLQESGPGLVKPSETLSLTCTVSGSSISSYHWNWIRQPAGKGLEWIGRIYTSGSTNYNPSLKSRVTMSLDTSKNQFSLKLSSVTAADTAVYYCAREGVRYYYASGSYYYGLDVWGQGTTVTVSS
VL: not shown
notes: fully human IgG2 kappa from hybridoma; signal peptide left out
B2: anti-MAdCAM monoclonal antibody 1.7.2 (antibody, human IgG2, kappa, V domains shown)
VH: EVQLVESGGGLVKPGGSLRLSCVASGFTFTNAWMIWVRQAPGKGLEWVGRIKRKTDGGTTDYAAPVKGRFTISRDDSKNTLYLQMNSLKTEDTAVYYCTTGGVAEDYWGQGTLVTVSS
VL: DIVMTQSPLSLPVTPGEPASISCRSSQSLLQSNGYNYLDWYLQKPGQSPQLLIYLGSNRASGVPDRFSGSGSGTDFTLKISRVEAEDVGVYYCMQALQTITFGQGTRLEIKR
B3: anti-MAdCAM monoclonal antibody 1.8.2 (antibody, human IgG2, kappa, V domains shown)
VH: B2 VH with A24V
VL: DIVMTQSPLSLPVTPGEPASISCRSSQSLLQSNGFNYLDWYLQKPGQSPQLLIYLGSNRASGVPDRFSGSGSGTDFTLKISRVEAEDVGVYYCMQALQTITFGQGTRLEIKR
B4: anti-MAdCAM monoclonal antibody 6.22.2 (antibody, human IgG4, kappa, V domains shown)
VH: QVQLVESGGGVVQPGRSLRLSCAASGHTFSSDGMHWVRQAPGKGLEWVAIIWYDGSNKYYADSVKGRFTISRDNSKNTLYLQMNSLRAEDTAVYYCARDPGYYYGMDVWGQGTTVTVSS
VL: EIVLTQSPDFQSVTPKEKVTITCRASQRIGSSLHWYQQKPDQSPKLLIKYASQSFSGVPSRFSGSGSGTNFTLTINGLEAEDAATYYCHQSGRLPLTFGGGTKVEIKR
notes: fully human IgG4 kappa from hybridoma; signal peptide left out; kappa chain stained positive for glycosylation
B5: anti-MAdCAM monoclonal antibody 6.77.1 (antibody, human IgG4, kappa, V domains shown)
VH: EVQLVESGGGLVKPGGSLRLSCAASGFTFSSYSMNWVRQAPGKGLEWVSSISSSSSYIYYADSVKGRFTISRDNAKNSLYLQMNSLRAEDTAVYYCARDGYSSGWSYYYYYGMDVWGQGTTVTVSS
VL: DIVMTQTPLSLSVTPGQPASISCNSSQSLLLSDGKTYLNWYLQKPGQPPQLLIYEVSNRFSGVPDRFSGSGSGTDFTLKISRVEAEDVGVYSCMQSIQLMCSFGQGTKLEIKR
notes: as for B4
B6: anti-MAdCAM monoclonal antibody 7.16.6 (antibody, human IgG2, kappa, V domains shown)
VH: QVQLVQSGAEVKKPGASVKVSCKASGYTFTSYGINWVRQAPGQGLEWMGWISVYSGNTNYAQKVQGRVTMTADTSTSTAYMDLRSLRSDDTAVYYCAREGSSSSGDYYYGMDVWGQGTTVTVSS
VL: DIVMTQTPLSLSVTPGQPASISCKSSQSLLHTDGTTYLYWYLQKPGQPPQLLIYEVSNRFSGVPDRFSGSGSGTDFTLKISRVEAEDVGIYYCMQNIQLPWTFGQGTKVEIKR
B7: anti-MAdCAM monoclonal antibody 6.14.2 (antibody, human IgG4, kappa, V domains shown)
VH: EVQLLESGGGLVQPGGSLRLSCAASGLTFNNSAMTWVRQAPGKGLEWVSTTSGSGGTTYYADSVKGRFTISRDSPKNTLYLQMNSLRAEDTAVYYCAARGYSYGTTPYEYWGQGTLVTVSS
VL: DIQMTQSPSSLSASVGDRVTITCRASRSISSYLNWYQQKPGKAPKVLIFFVSSLQSGVPSRFSGSGSGTDFTLTISSLQPEDFATYYCQQNYIPPITFGQGTRLEIRR
B8: anti-MAdCAM monoclonal antibody 6.34.2 (antibody, human IgG4, kappa, V domains shown)
VH: QVQLVESGGGVVQPGRSLRLSCAASGFTFSSYGMHWVRQAPGKGLEWVAVISNDGNNKYYADSVKGRFTISRDNSKNTLYLQMNSLSAEDTAVYYCARDSTAITYYYYGMDVWGQGTTVTVSS
VL: DIQMTQSPSSLSASVGDRVTITCRASQNISSYLNWFQQKPGKAPKLLIYAASGLKRGVPSRFSGSGSGTDFTLTIRTLQPDDFATYSCHQSYSLPFTFGPGTKVDIKR
notes: as for B4
B9: anti-MAdCAM monoclonal antibody 6.67.1 (antibody, human IgG4, kappa, V domains shown)
VH: QVQLQESGPGLVKPSETLSLTCTVSGDSISSNYWSWIRQPAGKGLEWIGRIYTSGGTNSNPSLRGRVTILADTSKNQFSLKLSSVTAADTAVYYCARDRITIIRGLIPSFFDYWGQGTLVTVSS
VL: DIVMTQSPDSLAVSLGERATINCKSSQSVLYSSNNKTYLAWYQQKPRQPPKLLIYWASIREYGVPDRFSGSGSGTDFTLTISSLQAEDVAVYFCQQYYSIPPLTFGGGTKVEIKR
notes: as for B4
B10: anti-MAdCAM monoclonal antibody 6.73.2 (antibody, human IgG4, kappa, V domains shown)
VH: EVQLLESGGDLVQPGGSLRLSCAASGFTFRSYAMNWVRQAPGKGLEWVSVISGRGGTTYYADSVKGRFTISRDNSKNTLYLQMNSLRAEDAAVYYCAKIAVAGEGLYYYYGMDVWGQGTTVTVSS
VL: DIQMTQSPSSLSASVGDRVTFTCRASQNITNYLNWYQQKPGKAPKLLIYAASSLPRGVPSRFRGSGSGTDFTLTISSLQPEDFATYYCQQSYSNPPECGFGQGTTLDIKR
B11: modified anti-MAdCAM monoclonal antibody 6.22.2-mod (antibody, human IgG2, kappa, V domains shown)
VH: B4 VH with H27F
VL: B4 VL with N70D, G77S
notes: human IgG2 kappa, made in HEK 293T cells; signal peptide left out
B12: modified anti-MAdCAM monoclonal antibody 7.26.4-mod (antibody, human IgG2, kappa, V domains shown)
VH: B6 VH with K23E, N35D, V64L, T71S, A72T, D82E
VL: B6 VL with H31Y, T32S, T35K, Y39F, I90V, N96S
notes: human IgG2 kappa, parental heavy chain with modified kappa chain, made in HEK 293T cells; signal peptide left out
B13: modified anti-MAdCAM monoclonal antibody 6.77.1-mod (antibody, human IgG2, kappa, V domains shown)
VH: B5 VH
VL: B5 VL with N24K, C101S
notes: as for B11
B14: modified anti-MAdCAM monoclonal antibody 6.34.2-mod (antibody, human IgG2, kappa, V domains shown)
VH: B8 VH with S87R
VL: B8 VL with N28S, F36Y, R76S, T77S, D81E, S87Y
notes: as for B11
B15: modified anti-MAdCAM monoclonal antibody 6.67.1-mod (antibody, human IgG2, kappa, V domains shown)
VH: B9 VH with I69M, L70S, A71V
VL: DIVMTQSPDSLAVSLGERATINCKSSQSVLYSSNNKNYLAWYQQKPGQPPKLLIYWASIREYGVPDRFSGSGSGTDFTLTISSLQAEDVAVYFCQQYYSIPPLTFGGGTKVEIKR
notes: as for B11

target: T2, MAdCAM-IgG1 Fc fusion protein (human); assay: adhesion of calcein-loaded α4β7+ JY cells to coated MAdCAM-IgG1 Fc, blocked by antibody
T2 construct: Expressed in CHO-DHFR cells; also called MAdCAM-IgFc; soluble MAdCAM (in the sandwich ELISA)
T2 sequence (chain, as listed by the source limits assumed): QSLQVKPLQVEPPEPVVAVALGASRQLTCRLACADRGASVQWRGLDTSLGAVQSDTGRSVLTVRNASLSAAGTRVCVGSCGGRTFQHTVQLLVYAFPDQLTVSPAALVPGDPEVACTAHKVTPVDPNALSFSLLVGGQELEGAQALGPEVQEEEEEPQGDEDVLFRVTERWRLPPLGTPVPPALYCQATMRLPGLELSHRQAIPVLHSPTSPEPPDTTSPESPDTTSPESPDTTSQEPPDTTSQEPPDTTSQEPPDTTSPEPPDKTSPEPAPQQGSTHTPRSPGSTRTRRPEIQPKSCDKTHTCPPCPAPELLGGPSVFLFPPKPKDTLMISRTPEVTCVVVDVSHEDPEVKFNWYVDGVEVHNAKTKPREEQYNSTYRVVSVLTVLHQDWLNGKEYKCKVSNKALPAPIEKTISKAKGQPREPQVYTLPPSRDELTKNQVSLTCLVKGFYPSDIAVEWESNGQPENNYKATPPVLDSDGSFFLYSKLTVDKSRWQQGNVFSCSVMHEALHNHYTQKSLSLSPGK
Protocol: (§1) The cells were washed twice with RPMI 1640 media (Gibco) containing 2 mM L-glutamine (Gibco) by centrifugation (240 g), resuspending the final cell pellet at 2×10⁶ cells/mL in RPMI 1640 for Calcein AM loading. Calcein AM (Molecular Probes #C-3099) was added to the cells as a 1:200 dilution in DMSO (ca. final concentration 5 μM) and the cells protected from light during the course of the incubation (37° C. for 30 min). During this cell incubation step the antibodies to be tested, were diluted as follows: for single dose testing, the antibodies were made up to 3 μg/mL (1 μg/mL final) in 0.1 mg/mL BSA (Sigma#A3059) in PBS; for full IC₅₀ curves, the antibodies were diluted in 0.1 mg/mL BSA/PBS, with 3 μg/mL (1 μg/mL final) being the top concentration, then doubling dilutions (1:2 ratio) across the plate. The final well of the row was used for determining total binding, so 0.1 mg/ml BSA in PBS was used.
After blocking, the plate contents were flicked out and 50 μL of antibodies/controls were added to each well and the plate incubated at 37° C. for 20 min. During this time, Calcein-loaded JY cells were washed once with RPMI 1640 media containing 10% fetal bovine serum and once with 1 mg/mL BSA/PBS by centrifugation, resuspending the final cell pellet to 1×10⁶/mL in 1 mg/mL BSA/PBS. 100 μL of cells were added to each well of the U bottomed plate, the plate sealed, briefly centrifuged (1000 rpm for 2 min) and the plate then incubated at 37° C. for 45 min. At the end of this time, the plates were washed with a Skatron plate washer and fluorescence measured using a Wallac Victor² 1420 Multilabel Reader (excitation λ 485 nm, emission λ 535 nm count from top, 8 mm from bottom of plate, for 0.1 sec with normal emission aperture). For each antibody concentration, percent adhesion was expressed as a percentage of maximal fluorescence response in the absence of any antibody minus fluorescence associated with non-specific binding. […]

IC50 [µg/mL] | Binder
< 0.1 | B1

target: T1, VCAM (Panvera); assay: cell-based or functional assay

inhibition of adhesion of α4β1+/α5β1+ Jurkat T-cells to coated VCAM [fold] | Binder
> 100 | B2
> 100 | B3
> 100 | B4
> 100 | B5
> 100 | B6
> 100 | B1
> 100 | B7
> 100 | B8
> 100 | B9
> 100 | B10

target: Fibronectin cell binding fragment (110 Kd, Europa Bioproducts Ltd, Cat. No. UBF4215-18) (UniProt P02751-1 722-1635); assay: cell-based or functional assay
Sequence (P02751 other isoform, or with tags, fused parts or gaps limits assumed): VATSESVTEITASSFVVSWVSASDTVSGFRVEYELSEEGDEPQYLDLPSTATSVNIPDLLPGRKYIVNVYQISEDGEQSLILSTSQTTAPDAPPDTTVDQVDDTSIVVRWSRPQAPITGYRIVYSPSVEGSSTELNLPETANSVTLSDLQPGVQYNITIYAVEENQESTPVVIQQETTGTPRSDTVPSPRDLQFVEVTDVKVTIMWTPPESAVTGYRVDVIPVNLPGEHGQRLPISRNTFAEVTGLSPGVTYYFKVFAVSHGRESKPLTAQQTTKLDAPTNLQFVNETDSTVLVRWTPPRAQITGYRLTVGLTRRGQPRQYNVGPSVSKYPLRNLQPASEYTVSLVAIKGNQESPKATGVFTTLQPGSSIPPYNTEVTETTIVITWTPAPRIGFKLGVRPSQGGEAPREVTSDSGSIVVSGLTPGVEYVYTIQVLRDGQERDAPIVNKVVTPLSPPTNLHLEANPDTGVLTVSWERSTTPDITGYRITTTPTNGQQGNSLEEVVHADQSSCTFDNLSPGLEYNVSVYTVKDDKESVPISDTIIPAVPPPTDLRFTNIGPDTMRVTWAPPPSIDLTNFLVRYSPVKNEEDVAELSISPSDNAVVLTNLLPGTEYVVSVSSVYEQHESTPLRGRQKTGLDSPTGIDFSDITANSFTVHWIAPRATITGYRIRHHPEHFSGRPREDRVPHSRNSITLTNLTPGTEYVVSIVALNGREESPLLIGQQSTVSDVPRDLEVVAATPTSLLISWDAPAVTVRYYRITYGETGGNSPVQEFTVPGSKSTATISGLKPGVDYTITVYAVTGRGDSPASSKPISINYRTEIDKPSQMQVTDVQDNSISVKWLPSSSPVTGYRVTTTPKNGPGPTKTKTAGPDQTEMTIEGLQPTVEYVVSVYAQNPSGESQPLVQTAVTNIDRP

inhibition of adhesion of α4β1+/α5β1+ Jurkat T-cells to coated Fibronectin cell binding fragment [fold] | Binder
> 100 | B2
> 100 | B3
> 100 | B4
> 100 | B5
> 100 | B6
> 100 | B1
> 100 | B7
> 100 | B8
> 100 | B9
> 100 | B10

target: T2, MAdCAM-IgG1 Fc fusion protein; assay: MAdCAM-IgG1 Fc fusion / JY cell adhesion assay, mean IC50
Protocol: as §1
After blocking, the plate contents were flicked out and 50 μL of antibodies/controls were added to each well and the plate incubated at 37° C. for 20 min. During this time, Calcein-loaded JY cells were washed once with RPMI 1640 media containing 10% fetal bovine serum and once with 1 mg/mL BSA/PBS by centrifugation, resuspending the final cell pellet to 1×10⁶/mL in 1 mg/mL BSA/PBS. 100 μL of cells were added to each well of the U bottomed plate, the plate sealed, briefly centrifuged (1000 rpm for 2 min) and the plate then incubated at 37° C. for 45 min. At the end of this time, the plates were washed with a Skatron plate washer and fluorescence measured using a Wallac Victor² 1420 Multilabel Reader (excitation λ 485 nm, emission λ 535 nm count from top, 8 mm from bottom of plate, for 0.1 sec with normal emission aperture). For each antibody concentration, percent adhesion was expressed as a percentage of maximal fluorescence response in the absence of any antibody minus fluorescence associated with non-specific binding. The IC₅₀ value is defined as the anti-MAdCAM antibody concentration at which the adhesion response is decreased to 50% of the response in the absence of anti-MAdCAM antibody.

IC50 [µg/mL] | Binder
0.018 | B4
0.058 | B11
0.033 | B12
0.077 | B13
0.013 | B8
0.049 | B14
0.013 | B9
0.037 | B15
